US20120060230

Experiments:
Assay in all cases: cell_activity
[1] = system: ZFN 28404 (synthetic); conditions: pair with 28403, HEK293
[2] = system: ZFN 15506 (synthetic); conditions: pair with 15507, K562
[3] = system: ZFN 15873 (synthetic); conditions: pair with 15872, wt FokI, K562; approx 28% with EL/KK
[4] = system: ZFN 28406 (synthetic); conditions: pair with 28405, HEK293
[5] = system: ZFN 15487 (synthetic); conditions: pair with 15486, K562; approx 1% in RAJI
[6] = system: ZFN 18889 (synthetic); conditions: pair with 24859, HLA A2, HEK293; with 18881 approx 3%; A3 allele 10% and 9%
[7] = system: ZFN 24859 (synthetic); conditions: pair with 18889, HLA A2, HEK293; A3 allele 10%
[8] = system: ZFN 16787 (synthetic); conditions: pair with 16783, 10 ug mRNA, primary T cells; background 2.4%
[9] = system: ZFN 28385 (synthetic); conditions: pair with 28386, HEK293
[10] = system: ZFN 28393 (synthetic); conditions: pair with 28394, HEK293
[11] = system: ZFN 25540 (synthetic); conditions: pair with 25539, 10 ug mRNA, primary T cells; background 2.4%
[12] = system: ZFN 15872 (synthetic); conditions: pair with 15873, wt FokI, K562; approx 28% with EL/KK
[13] = system: ZFN 28403 (synthetic); conditions: pair with 28404, HEK293
[14] = system: ZFN 28405 (synthetic); conditions: pair with 28406, HEK293
[15] = system: ZFN 18881 (synthetic); conditions: pair with 18889, HLA A2, HEK293; A3 allele 9%
[16] = system: ZFN 15909 (synthetic); conditions: pair with 15910, EL/KK FokI, K562; 6 and 11% with wt FokI
[17] = system: ZFN 15507 (synthetic); conditions: pair with 15506, K562
[18] = system: ZFN 28386 (synthetic); conditions: pair with 28385, HEK293
[19] = system: ZFN 15910 (synthetic); conditions: pair with 15909, EL/KK FokI, K562; 6 and 11% with wt FokI
[20] = system: ZFN 25539 (synthetic); conditions: pair with 25540, 10 ug mRNA, primary T cells; background 2.4%
[21] = system: ZFN 28394 (synthetic); conditions: pair with 28393, HEK293

## CTGGATGGGGCTTGGCTGATGGTCAGCA (double strand) [28404 site]
[1]
  activity (% gene modification): 64

## TTGATGTCAGGGAAGATCTCTCTGATGA (double strand) [15506 site]
[2]
  activity (% gene modification): 2

## GAGGAGAGCAGGCCGATTACCTGACCCA (double strand) [15873 site]
[3]
  activity: 13 % NHEJ

## CCACAGCCAGAGCCTCAGCAGGAGCCTG (double strand) [28406 site]
[4]
  activity (% gene modification): 34

## CTACTCGGGCCATCGGCGGCTGCCTCGG (double strand) [15487 site]
[5]
  activity (% gene modification): 15

## GTATGGCTGCGACGTGGGGTCGGACGGG (double strand) [18889 site]
[6]
  activity: 6 % NHEJ

## TCCTCTGGACGGTGTGAGAACCTGGCCC (double strand) [24859 site]
[7]
  activity: 6 % NHEJ

## TCTCGGAGAATGACGAGTGGACCCAGGA (double strand) [16787 site]
[8]
  activity (% CD3-negative cells): 9.4

## ACTCTGGGGTAGATGGAGAGCAGTACCT (double strand) [28385 site]
[9]
  activity (% gene modification): 39

## TTGATTCGAGACATGGTGTAGGTGAAGC (double strand) [28393 site]
[10]
  activity (% gene modification): 49

## CTGACTTTGCATGTGCAAACGCCTTCAA (double strand) [25540 site]
[11]
  activity (% CD3-negative cells): 28.1

## GAAATAAGGCATACTGGTATTACTAATG (double strand) [15872 site]
[12]
  activity: 13 % NHEJ

## GCCCGCGGGCAGTTCTGCGCGGGGGTCA (double strand) [28403 site]
[13]
  activity (% gene modification): 64

## CGCAAGAGGCTGGAGAGGCTGAGGACTG (double strand) [28405 site]
[14]
  activity (% gene modification): 34

## TTATCTGGATGGTGTGAGAACCTGGCCC (double strand) [18881 site]
[15]
  activity: 3 % NHEJ

## TCTCCCAGGGTGGTTCAGTGGCAGAATT (double strand) [15909 site]
[16]
  activity: 14 % NHEJ

## GCTCGAAGGCTTGGTGGCCGGGGCCAGT (double strand) [15507 site]
[17]
  activity (% gene modification): 2

## AGAAGGCTGTGGGCTCCTCAGAGAAAAT (double strand) [28386 site]
[18]
  activity (% gene modification): 39

## GCGGGGGAAAGAGAGGAGGAGAGAAGGA (double strand) [15910 site]
[19]
  activity: 14 % NHEJ

## TTGTTGCTCCAGGCCACAGCACTGTTGC (double strand) [25539 site]
[20]
  activity (% CD3-negative cells): 28.1

## TTGCGGATCCGGGAGCAGCTTTTCTCCT (double strand) [28394 site]
[21]
  activity (% gene modification): 49
